Publication PMC7604486 (Proceedings of the National Academy of Sciences of the …, 2020)

Biological target: T1, Rae1 (NTE-deleted), chain of the crystallized heterotrimer (mouse, UniProt Q8C570 24-368)
T1 sequence (looked up): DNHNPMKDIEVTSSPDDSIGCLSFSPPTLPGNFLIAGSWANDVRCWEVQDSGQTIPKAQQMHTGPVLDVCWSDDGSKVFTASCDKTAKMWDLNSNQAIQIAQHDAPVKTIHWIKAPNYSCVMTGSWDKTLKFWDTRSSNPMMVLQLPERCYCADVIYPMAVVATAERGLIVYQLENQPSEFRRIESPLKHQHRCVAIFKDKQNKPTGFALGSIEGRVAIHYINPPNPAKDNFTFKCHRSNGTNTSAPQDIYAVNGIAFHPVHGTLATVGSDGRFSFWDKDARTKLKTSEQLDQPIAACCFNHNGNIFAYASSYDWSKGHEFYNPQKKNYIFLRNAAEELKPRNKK
Test: crystal structure

binding result: binds
B1: Nup98 GLEBS region, chain of the crystallized heterotrimer (domain or fragment)
chain: not shown
